Entries after “also recorded” stand apart in the source; their conditions may differ.
How the values were obtained:
Type in all cases: binding
[1] = target: T1, Human CD39-L4, also known as NTPDase5 or ENTPD5 (Homo sapiens, UniProt O75356); experiment: ELISA titration on CD39-L4; conditions: coated recombinant protein, OD=450
T1 sequence (O75356 25-428): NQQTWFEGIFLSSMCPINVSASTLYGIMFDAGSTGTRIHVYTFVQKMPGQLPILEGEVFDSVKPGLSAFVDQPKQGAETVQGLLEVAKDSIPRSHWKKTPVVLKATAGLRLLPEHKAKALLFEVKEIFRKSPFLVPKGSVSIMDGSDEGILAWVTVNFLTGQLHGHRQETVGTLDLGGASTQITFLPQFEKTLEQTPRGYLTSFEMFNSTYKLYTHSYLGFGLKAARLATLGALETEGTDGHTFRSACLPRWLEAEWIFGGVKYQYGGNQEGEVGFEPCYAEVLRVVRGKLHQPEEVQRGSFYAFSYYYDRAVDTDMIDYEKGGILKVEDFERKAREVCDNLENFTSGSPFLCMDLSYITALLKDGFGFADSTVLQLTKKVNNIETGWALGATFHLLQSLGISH
Method: (§1) Wells were washed in TBS Tween 20, and further saturated 2H at RT in TBS Blocking buffer. Dose range concentration of primary antibody was incubated in TBS blocking buffer for 2 h at RT. Wells were washed in TBS Tween 20. […] Optical density was measured on Enspire™ at OD=450.

[2] = target: T2, Human CD39-L1, also known as NTPDase2 or ENTPD2 (Homo sapiens, UniProt Q9Y5L3); experiment: ELISA titration on CD39-L1; conditions: coated recombinant protein, OD=450
T2 sequence (Q9Y5L3 1-472 isoform Q9Y5L3-2): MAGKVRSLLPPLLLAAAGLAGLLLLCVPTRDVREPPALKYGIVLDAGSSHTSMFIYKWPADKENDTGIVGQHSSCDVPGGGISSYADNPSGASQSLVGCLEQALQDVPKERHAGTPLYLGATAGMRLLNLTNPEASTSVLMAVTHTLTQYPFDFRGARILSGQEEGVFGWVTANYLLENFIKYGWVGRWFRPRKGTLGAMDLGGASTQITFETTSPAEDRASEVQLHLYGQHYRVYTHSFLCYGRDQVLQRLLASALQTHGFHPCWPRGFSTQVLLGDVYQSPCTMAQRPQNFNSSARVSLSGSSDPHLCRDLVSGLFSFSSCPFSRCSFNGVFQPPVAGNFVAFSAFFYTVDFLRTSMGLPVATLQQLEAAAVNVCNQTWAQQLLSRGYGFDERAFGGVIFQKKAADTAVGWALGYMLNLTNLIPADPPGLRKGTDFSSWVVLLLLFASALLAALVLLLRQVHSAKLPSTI
Method: as §1

[3] = test system: CHO cells expressing cynomolgus (macaca fascicularis) CD39; experiment: Antibody titration by flow cytometry on CHO-cyCD39
Method: (§2) Cells were incubated with various concentration of unlabeled anti-CD39 antibody from 30 μg/ml to 5×10^−4 μg/ml, for 30 minutes at 4° C. After washes, cells were incubated with Goat anti-mouse H+L labeled secondary antibody for 30 min at 4° C.

[4] = target: T3, human Ramos lymphoma cells (Homo sapiens, UniProt P49961); experiment: Antibody titration by flow cytometry on Ramos cells
T3 construct: host or cells: Ramos human lymphoma cells
T3 sequence (P49961 1-510): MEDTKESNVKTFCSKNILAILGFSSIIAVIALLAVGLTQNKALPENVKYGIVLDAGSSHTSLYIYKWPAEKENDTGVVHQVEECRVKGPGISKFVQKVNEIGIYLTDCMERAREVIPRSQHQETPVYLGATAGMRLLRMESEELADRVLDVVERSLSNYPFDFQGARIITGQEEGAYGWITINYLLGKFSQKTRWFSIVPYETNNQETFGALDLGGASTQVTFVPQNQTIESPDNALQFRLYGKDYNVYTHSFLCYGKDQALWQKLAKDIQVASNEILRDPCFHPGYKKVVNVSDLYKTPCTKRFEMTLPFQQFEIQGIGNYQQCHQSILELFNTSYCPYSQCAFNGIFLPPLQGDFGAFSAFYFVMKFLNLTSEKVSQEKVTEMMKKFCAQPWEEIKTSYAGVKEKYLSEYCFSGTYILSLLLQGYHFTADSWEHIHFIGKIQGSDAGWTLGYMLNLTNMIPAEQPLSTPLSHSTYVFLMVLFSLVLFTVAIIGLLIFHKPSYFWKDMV
Method: as §2

B1: I-394: anti-CD39 antibody, VH SEQ ID NO: 3, VL SEQ ID NO: 4; heavy and light chains SEQ ID NOS: 37 and 38 (antibody)
heavy: EVQLQQSGPELVKPGASVKMSCKASGYTFTDYNMHWVKQSHGRTLEWIGYIVPLNGGSTFNQKFKGRATLTVNTSSRTAYMELRSLTSEDSAAYYCARGGTRFAYWGQGTLVTVSAASTKGPSVFPLAPSSKSTSGGTAALGCLVKDYFPEPVTVSWNSGALTSGVHTFPAVLQSSGLYSLSSVVTVPSSSLGTQTYICNVNHKPSNTKVDKRVEPKSCDKTHTCPPCPAPEAEGAPSVFLFPPKPKDTLMISRTPEVTCVVVDVSHEDPEVKFNWYVDGVEVHNAKTKPREEQYNSTYRVVSVLTVLHQDWLNGKEYKCKVSNKALPSSIEKTISKAKGQPREPQVYTLPPSREEMTKNQVSLTCLVKGFYPSDIAVEWESNGQPENNYKTTPPVLDSDGSFFLYSKLTVDKSRWQQGNVFSCSVMHEALHNHYTQKSLSLSPGK
light: DIVLTQSPASLAVSLGQRATISCRASESVDNFGVSFMYWFQQKPGQPPNLLIYGASNQGSGVPARFRGSGSGTDFSLNIHPMEADDTAMYFCQQTKEVPYTFGGGTKLEIKRTVAAPSVFIFPPSDEQLKSGTASVVCLLNNFYPREAKVQWKVDNALQSGNSQESVTEQDSKDSTYSLSSTLTLSKADYEKHKVYACEVTHQGLSSPVTKSFNRGEC
modifications: Chimeric homo sapiens mus musculus
- binding to CD39-L4 in ELISA [1]: not to any of the human isoforms
- binding to CD39-L1 in ELISA [2]: not to any of the human isoforms
- binding to cells expressing cynomolgus CD39 (CHO-cyCD39) [3]: bound; also recorded: binds
- binding to Ramos lymphoma cells [4]: bound; also recorded: binds
